Experimental data as given in US20240002820A1.

Biological target: Uracil DNA glycosylase (UNG), endogenous in HuH-7 and U-2OS cells (UniProt P13051)
Assay: cell-based or functional assay

UniProt P13051, sequence (P13051 whole entry): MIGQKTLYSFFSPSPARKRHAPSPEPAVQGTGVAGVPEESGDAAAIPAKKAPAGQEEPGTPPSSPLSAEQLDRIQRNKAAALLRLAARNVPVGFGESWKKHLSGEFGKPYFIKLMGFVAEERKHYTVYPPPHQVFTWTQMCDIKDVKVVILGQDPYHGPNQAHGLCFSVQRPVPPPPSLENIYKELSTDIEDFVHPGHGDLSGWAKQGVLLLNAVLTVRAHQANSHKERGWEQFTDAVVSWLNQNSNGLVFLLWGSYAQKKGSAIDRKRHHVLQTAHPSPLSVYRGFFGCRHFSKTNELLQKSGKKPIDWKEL

**Q.** With “Uracil Glycosylase Inhibitor (UGI), overexpressed from plasmid pCDNA3.1-UGI (from UniProt P14739 1-84)” as the substance, how does the Fold change relative to GFP in % of edited reads, C-to-A/G or indel, HuH-7 cells, BC22 + UGI overexpression (fold change relative to GFP) read?
**A.** -4.53

**Q.** And the Fold change relative to GFP in % of edited reads, C-to-A/G or indel, HuH-7 cells, BC22 + UGI overexpression + siRNA against UNG (fold change relative to GFP)?
**A.** -4.76

**Q.** What about the Fold change relative to GFP in % of edited reads, C-to-A/G or indel, HuH-7 cells, BC27 + UGI overexpression (fold change relative to GFP) of the same substance?
**A.** -9.3

**Q.** What about the Fold change relative to GFP in % of edited reads, C-to-A/G or indel, HuH-7 cells, BC27 + UGI overexpression + siRNA against UNG (fold change relative to GFP) of the same substance?
**A.** -10.8

**Q.** What about the Fold change relative to GFP in % of edited reads, C-to-A/G or indel, U-2OS cells, BC22 + UGI overexpression (fold change relative to GFP) of the same substance?
**A.** -2.97

**Q.** And the Fold change relative to GFP in % of edited reads, C-to-A/G or indel, U-2OS cells, BC22 + UGI overexpression + siRNA against UNG (fold change relative to GFP)?
**A.** -3.46

**Q.** What about the Fold change relative to GFP in % of edited reads, C-to-A/G or indel, U-2OS cells, BC27 + UGI overexpression (fold change relative to GFP) of the same substance?
**A.** -3.09

**Q.** What about the Fold change relative to GFP in % of edited reads, C-to-A/G or indel, U-2OS cells, BC27 + UGI overexpression + siRNA against UNG (fold change relative to GFP) of the same substance?
**A.** -3.48

**Q.** And the Fold change relative to GFP in % of edited reads, C-to-T, HuH-7 cells, BC22 + UGI overexpression (fold change relative to GFP)?
**A.** 1.56

**Q.** And the Fold change relative to GFP in % of edited reads, C-to-T, HuH-7 cells, BC22 + UGI overexpression + siRNA against UNG (fold change relative to GFP)?
**A.** 1.57

**Q.** And the Fold change relative to GFP in % of edited reads, C-to-T, HuH-7 cells, BC27 + UGI overexpression (fold change relative to GFP)?
**A.** 2.13

**Q.** What about the Fold change relative to GFP in % of edited reads, C-to-T, HuH-7 cells, BC27 + UGI overexpression + siRNA against UNG (fold change relative to GFP) of the same substance?
**A.** 2.15

**Q.** What about the Fold change relative to GFP in % of edited reads, C-to-T, U-2OS cells, BC22 + UGI overexpression (fold change relative to GFP) of the same substance?
**A.** 1.21

**Q.** What about the Fold change relative to GFP in % of edited reads, C-to-T, U-2OS cells, BC22 + UGI overexpression + siRNA against UNG (fold change relative to GFP) of the same substance?
**A.** 1.22

**Q.** What about the Fold change relative to GFP in % of edited reads, C-to-T, U-2OS cells, BC27 + UGI overexpression (fold change relative to GFP) of the same substance?
**A.** 1.92

**Q.** What about the Fold change relative to GFP in % of edited reads, C-to-T, U-2OS cells, BC27 + UGI overexpression + siRNA against UNG (fold change relative to GFP) of the same substance?
**A.** 1.97

**Q.** What about the Share of total edits that are C-to-T-only edits, HuH-7 cells, BC22 or BC27 + UGI overexpression of the same substance?
**A.** 94%
